Source: the DeepSol protein solubility set

Assay: soluble on expression in E. coli; label from the status in PepcDB or PDB records

| Sequence | soluble on expression in E. coli |
| --- | --- |
| MATLATKKATLVAALKDLQRVTVAFSGGIDSTLVLKMALDVLGRDNVTAVVANSELFTDEEFDKAMSLAEELGANVQGTTLDYLSDDHIKNNTPDSWYYAKKMFYSRLNDIAANNGSAAVLDGMIKNDENDYRPGLKARSEAGARSLLQEADFFKTDVRALAQELGLTNWNKVASCSVSSRFPYGTTLTHDNIAQVMAAEKYLRSLGFPTVRVRFHNDIARIELPEARIGDFLVFNDRVNRQLQSLGFRYVTLDLGGFRSGRMNDTLTKAQLATFA | not soluble |
| GSHMLETEDVVRARDAHLRSILDTVPDATVVSATDGTIVSFNAAAVRQFGYAEEEVIGQNLRILMPEPYRHEHDGYLQRYMATGEKRIIGIDRVVSGQRKDGSTFPMKLAVGEMRSGGERFFTGFIRDLT | soluble |
| MGSDKIHHHHHHMSYGYDKNADDIMKNADHIFEIKGIMRFPDRLKESIGDISIRSFAKKCGLSEGVMRNYLAGKTYPSLDKLALMAEVSNKPLDWLVAGTEHNFNELNEPGSKYVIGINLEEYALIPGYRVQVSAGHGALNCDQQDPVRYLAFRRKWLKYRGFEEHELAIVWAKGDSMEPTIHSNDTLVVHLGRNSPADGHIYIFRNGDDLFVKRYQNAFGSWRLISDNPVYDKLDIPKHEQHQFEVVGQVVHIAKDIGD | not soluble |
| MGSDKIHHHHHHMLESYITVKQDGFSEIEIKKSRFICSVKRVTSEEEAKAFIAAIKKEHWKANHNCSAFVIGEKNDIQRSSDDGEPSGTAGVPMLEVLKKKELINVVAVVTRYFGGIKLGTGGLIRAYSHALSHTLDEIGLVIGKLQQELLITIAYPLLGKAQAFLEHSPYTLKETIYTESIQLICLVDEQATETFIAEMTDLLNGQLTIEKGATSYHELPFNEKGAQANDI | not soluble |
| GSHMDYNKRSSVSTVPNAAPIRVGFVGLNAAKGWAIKTHYPAILQLSSQFQITALYSPKIETSIATIQRLKLSNATAFPTLESFASSSTIDMIVIAIQVASHYEVVMPLLEFSKNNPNLKYLFVEWALACSLDQAESIYKAAAERGVQTIISLQGRKSPYILRAKELISQGYIGDINSIEIAGNGGWYGYERPVKSPKYIYEIGNGVDLVTTTFGHTIDILQYMTSSYFSRINAMVFNNIPEQELIDERGNRLGQRVPKTVPDHLLFQGTLLNGNVPVSCSFKGGKPTKKFTKNLVIDIHGTKGDLKLEGDAGFAEISNLVLYYSGTRANDFPLANGQQAPLDPGYDAGKEIMKVYHLRNYNAIVGNIHRLYQSISDFHFNTKKIPELPSQFVMQGFDFEGFPTLMDALILHRLIESVYKSNMMGSTLNVSNISHYSL | soluble |
| ENAFKRRRCGVCEVCQQPECGKCKACKDMVKFGGSGRSKQACQERRCPN | soluble |
| SLRQIRTVIQYQTVRYDILPLSPVSRNRLAQVKRKILVLDLDETLIHSHHDGVLRPTVRPGTPPDFILKVVIDKHPVRFFVHKRPHVDFFLEVVSQWYELVVFTASMEIYGSAVADKLDNSRSILKRRYYRQHCTLELGSYIKDLSVVHSDLSSIVILDNSPGAYRSHPDNAIPIKSWFSDPSDTALLNLLPMLDALRFTADVRSVLSRNLHQHRLW | soluble |
| MGSDKIHHHHHHMFSSEVIASFNELEMSIYNYICQHAEKVAYMRIRELADETHVSTATILRFCRKVDCDGFSEFKVKLKMHLEKEKKAPIKSSQHAIAEFFERAFRGDLEERISEAAALVADAENVIFIGIGSSGILAEYGARYFSALGKLSMYIKDFSYPIHSKLRQNSVTIALSVSGETHFTITQVNQLKQEGSKIISITNNKFSTIAKVADVNLSYYVSEEFFEKANITTQVPVVYILEAMARELYKLQG | not soluble |
| KEAMRMLMREELEKVLKTLSPREAMVLRMRYGLLDGKPKTLEEVGQYFNVTRERIRQIEVKALRKLRHPSRSKYLKSLLSLMDENEG | soluble |
| MVGAHQMKSEEQANMQLQQQAVLGLNWMQDSGEYKALAYQAYNAAKVAFDHAKVAKGKKKAVVADLDETMLDNSPYAGWQVQNNKPFDGKDWTRWVDARQSRAVPGAVEFNNYVNSHKGKVFYVTNRKDSSEKAGTIDDMKRLGFNGVEESAFYLKKDKSAKAARFAEIEKQGYEIVLYVGDNLDDFGNTVYGKLNADRRAFVDQNQGKFGKTFIMLPNANYGGWEGGLAEGYFKKDTQGQIKARLDAVQAWDGK | soluble |
| MDYCCVGRNNNDSVPSEGTLLRVKTLMKMANHPRPGDIIQESLDELNVSLREFARAMEIAPSTASRLLTGKAALTPEMAIKLSVVIGSSPQMWLNLQNAWSLAEAEKTVDVSRLRRLVTQ | soluble |
| ARQVICWCFTLNNPLSPLSLHDSMKYLVYQTEQGEAGNIHFQGYIEMKKRTSLAGMKKLIPGAHFEKRRGTQGEARAYSMKEDTRLEGPWEYGE | soluble |
| MQNNNEFKIGNRSVGYNHEPLIICEIGINHEGSLKTAFEMVDAAYNAGAEVVKHQTHIVEDEMSDEAKQVIPGNADVSIYEIMERCALNEEDEIKLKEYVESKGMIFISTLFSRAAALRLQRMDIPAYKIGSGECNNYPLIKLVASFGKPIILSTGMNSIESIKKSVEIIREAGVPYALLHCTNIYPTPYEDVRLGGMNDLSEAFPDAIIGLSDHTLDNYACLGAVALGGSILERHFTDRMDRPGPDIVCSMNPDTFKELKQGAHALKLARGGKKDTIIAGEKPTKDFAFASVVADKDIKKGELLSGDNLWVKRPGNGDFSVNEYETLFGKVAACNIRKGAQIKKTDIE | soluble |
| MSLSNKIFTHSLPMRYADFPTLVDALDYAALSSAGMNFYDRRCQLEDQLEYQTLKARAEAGAKRLLSLNLKKGDRVALIAETSSEFVEAFFACQYAGLVAVPLAIPMGVGQRDSWSAKLQGLLASCQPAAIITGDEWLPLVNAATHDNPELHVLSHAWFKALPEADVALQRPVPNDIAYLQYTSGSTRFPRGVIITHREVMANLRAISHDGIKLRPGDRCVSWLPFYHDMGLVGFLLTPVATQLSVDYLRTQDFAMRPLQWLKLISKNRGTVSVAPPFGYELCQRRVNEKDLAELDLSCWRVAGIGAEPISAEQLHQFAECFRQVNFDNKTFMPCYGLAENALAVSFSDEASGVVVNEVDRDILEYQGKAVAPGAETRAVSTFVNCGKALPEHGIEIRNEAGMPVAERVVGHICISGPSLMSGYFGDQVSQDEIAATGWLDTGDLGYLLDGYLYVTGRIKDLIIIRGRNIWPQDIEYIAEQEPEIHSGDAIAFVTAQEKIILQIQCRISDEERRGQLIHALAARIQSEFGVTAAIDLLPPHSIPRTSSGKPARAEAKKRYQKAYAASLNVQESLAEGHHHHHH | soluble |
| SAASKLQAFWNHPAGPKTIHFWAPTFKWGISIANVADFAKPPEMISYPQQVVVACSGVIWARWGMVITPINWNLSSVNAAMAVTGVCQLSRKIRHDYFSDEKSATASLEG | soluble |
| MNQKDVKLTVFSSDEKSFMVTATLVEKAGHAFLINSKFTQSDSKEIVEYLKKNNLSLDKIFIIHGDPDYYFGLESIKAVYPEAIAYATESTVEHIVHSVLGKLKVWKDALGENAPSNVVLPQVFKEKAIDFQGLTFELVGLEHYRTSLFNKELKVLIGGIDVFNEIHVFLADTSSKAAMEAWIENLKVLQALHADIIVPSHGSIEKSLNNQALTATMDYLRTAVQASEESGTSKDFVAKLEAAYPDYANKGVLELSAKVVTKELEHHHHHH | not soluble |
| MSAGVQLPLDLPWRPALGREHFLVAACNASAVALVEAWPHWPAPAACIHGPTGAGKTHLAQVFATRAAAVVLDPAVILGTDPLTLFEGGRAAVIEDADRAGLPEATLFHLLNAARQRGGSLLLTALSPPARWGVHLADLRSRLAALPAEGLCEPDDELMAAVLLKLFSDRGLDVAPGAIGYLLPRMERSFAAARDLVVHADALALREGRAVTVPLLRQLLATPDRADRLEHHHHHH | not soluble |
| MSLADLQKNFQTSFRDAMASCAAGVHVITTDGAAGRYGITMTAVAPVTDEPPTVMLCINRSARIIPILSENGSLCINTLADEHQDVAEHFAGLTGLSPEERFAYHIWHRGKTGQLEIEGALAHLHGHIVGKHEIGTHFVFYVRLDEIKNCGCKRPALLYFRRQFRFLDEGGSHHHHHH | soluble |
| MSLRKFIDLHLHLDGSVPVSTVKKLMQEHDLPIPTDQELRQELSVDSSCKSLDQFLEKFALPNKLMQTRHDLETIVYDLLTELKAQGLVYAEIRFAPQLHTKEGLTQEDAIKAAISGLNKFLYDQKEKNDSPELHAGLILCLMRFSNNQKENIETVELAKKFLNKGVVGLDLAGAEGPIPNIKYKSFFNQAQQLGVPYTIHAGEADGPDSIRQALAMGAKRIGHGIRCTEDTQLTQELIDQQIVLECCATSNMNTKAFDQIDSYPIKKLLHKGMKVTLNSDDMTVSDTNLLHEYKVLEKRTDLTPEEETTLYLNAVDAAFTTPDEKIRLRAFLQKEGHHHHHH | soluble |
| GKPFYYDVNFNLADSRAYITKYENPKGLLGDYYVGKEIGEIWGVETLGFFTSEEDIKNHADQSWCTSYPGTRPLAPGDLKFKDENKDGKITDGAWTLEDHGDYKIIGNSRARYTFGLSANAQWNGFDLSLFAQGVGKKDYYPGTGDLYFWGIYAQPWTNITKGNMYDHWTEENPDAYFPRMKAYVAENTDRECGVVQTRYLQNAAYMRLKNLTVGYTLPKVLLNKIGIERLRIFFSGDNLCEFSGLYKHYKVDPESLGNIVYPLQRSYSFGLNVTF | not soluble |
| MVEVRYLGHSAVLLTDGKTRIVIDPFLTGNPMAALGVGEVQADLILVTHAHGDHFGDSVALSKKGGVVVSTFEIATYAEKHGAKSVPMNLGGTYRFEGGWLKWVPAWHSSSFPDGTYGGMPMGVVVELGGKRIYHAGDTALFSDMRLIGEMGLDLALLPIGDHFTMGPEDALKALELLRPKKVVPIHYNTFPPIRQDGEAFAQRAREKGVEGHALKPGEVLRLD | soluble |
| GYMPPIEHLQNPIDKYASQLISADGKVFGSYAHSGDNRIYTRYNEISPDLIKALIATEDVRFRKHSGIDSKGLFRAVVKRGILNQKSGGGGSTITQQLAKLLYSPRTETKLGRLFQKPIEWVIAVKLERFYTKEEIITMYLNYFDFLYNAVGIKSAAYTYFGKQPADLKIEEAAVLVGMCKNPAYYNPVLHGETERCRGRRNIVLEQMYKAKYITKAECDSLQKLPLVTSFHRITHRDGEAPYFRERLRQVLMAKKPERKNYLAWQDDQYRADSIAWETDPVYGWCNKNKKADGSNYNIYTDGLKIYTTIDLRMQQYAEEAMVKQMKEVLQPIFDKEKRGRSYAPFSRDITSDEQRSILLRAMKQTDRWREMKKAGISESEIRASFNKKRKMQVWNWRGTIDTVMSPLDSIKYLKGILRTGFMAMNPHNGHIKAYVGGINFRNFQYDMVSQGRRQVGSTIKPFLYSLSMLEGISPCDEMLHVSQTLFTESGKAWTPKNTGARRTGEMVSIKWGLQNSSNWVTAYLMGRTSPYTFVRLLRS | not soluble |
